Test results: US20120190612A1, “METHODS OF TREATMENT” (CRC FOR ASTHMA AND AIRWAYS LTD., priority 2009, published 2012)
One block for each molecule: values may come before it.

Columns and labels:
VEGF-D (R&D Systems) = VEGF-D (R&D Systems) (UniProt O43915); assay: cell-based or functional assay
integrin β1 = target: T1, integrin β1 (Homo sapiens, UniProt P05556+P08648); assay: Integrin binding of HMVEC-LLy cells on antibody-coated plates; type: cell-based; settings: lamstatin 10 μg/ml, CP17 5 μM, 1 h
T1 construct: endogenous in cells; host or cells: HMVEC-LLy (human primary lymphatic endothelial cells)
T1 sequence (P05556 21-798): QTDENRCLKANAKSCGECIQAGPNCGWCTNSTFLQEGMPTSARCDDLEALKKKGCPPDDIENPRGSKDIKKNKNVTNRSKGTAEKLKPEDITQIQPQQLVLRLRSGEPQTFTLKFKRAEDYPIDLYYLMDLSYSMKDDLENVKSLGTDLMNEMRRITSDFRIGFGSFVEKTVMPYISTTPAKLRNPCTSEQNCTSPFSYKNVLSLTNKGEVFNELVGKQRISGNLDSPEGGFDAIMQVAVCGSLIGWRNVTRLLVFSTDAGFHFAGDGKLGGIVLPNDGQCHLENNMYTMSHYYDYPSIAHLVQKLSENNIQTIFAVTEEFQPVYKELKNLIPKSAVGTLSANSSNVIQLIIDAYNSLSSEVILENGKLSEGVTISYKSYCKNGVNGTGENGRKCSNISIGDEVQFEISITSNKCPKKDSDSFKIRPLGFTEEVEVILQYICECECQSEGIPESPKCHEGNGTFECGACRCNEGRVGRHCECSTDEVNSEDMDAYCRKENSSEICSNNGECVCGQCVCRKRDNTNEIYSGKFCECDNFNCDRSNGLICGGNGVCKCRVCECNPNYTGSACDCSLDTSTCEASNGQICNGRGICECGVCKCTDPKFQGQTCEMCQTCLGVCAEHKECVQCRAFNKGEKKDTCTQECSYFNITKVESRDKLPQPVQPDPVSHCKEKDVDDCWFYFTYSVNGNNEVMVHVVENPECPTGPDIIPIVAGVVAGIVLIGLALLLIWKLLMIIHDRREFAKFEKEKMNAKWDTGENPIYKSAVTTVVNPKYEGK
T1 sequence (P08648 42-894 limits assumed): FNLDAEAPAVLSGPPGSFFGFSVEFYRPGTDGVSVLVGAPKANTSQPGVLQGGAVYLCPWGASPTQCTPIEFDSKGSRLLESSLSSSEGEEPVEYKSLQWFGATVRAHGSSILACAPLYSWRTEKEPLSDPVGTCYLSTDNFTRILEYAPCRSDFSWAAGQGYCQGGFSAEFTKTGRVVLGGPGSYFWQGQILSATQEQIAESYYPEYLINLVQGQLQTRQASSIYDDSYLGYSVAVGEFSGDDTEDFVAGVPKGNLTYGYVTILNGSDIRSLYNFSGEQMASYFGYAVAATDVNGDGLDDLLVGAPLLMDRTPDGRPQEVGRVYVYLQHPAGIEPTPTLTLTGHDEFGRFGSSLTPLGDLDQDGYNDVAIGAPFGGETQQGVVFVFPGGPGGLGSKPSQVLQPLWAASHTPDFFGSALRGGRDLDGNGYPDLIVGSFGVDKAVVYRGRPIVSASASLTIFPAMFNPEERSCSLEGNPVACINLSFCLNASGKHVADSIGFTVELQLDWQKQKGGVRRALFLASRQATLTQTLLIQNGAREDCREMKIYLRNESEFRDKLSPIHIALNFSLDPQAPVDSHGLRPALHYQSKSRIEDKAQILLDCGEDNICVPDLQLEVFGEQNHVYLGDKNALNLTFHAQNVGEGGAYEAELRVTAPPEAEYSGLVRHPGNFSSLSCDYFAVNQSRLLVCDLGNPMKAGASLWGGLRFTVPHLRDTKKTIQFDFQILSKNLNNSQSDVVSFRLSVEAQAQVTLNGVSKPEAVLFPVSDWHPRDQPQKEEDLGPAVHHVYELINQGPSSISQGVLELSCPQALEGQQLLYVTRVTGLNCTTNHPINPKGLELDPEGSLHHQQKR
T1 sequence (P08648 895-1049 limits assumed): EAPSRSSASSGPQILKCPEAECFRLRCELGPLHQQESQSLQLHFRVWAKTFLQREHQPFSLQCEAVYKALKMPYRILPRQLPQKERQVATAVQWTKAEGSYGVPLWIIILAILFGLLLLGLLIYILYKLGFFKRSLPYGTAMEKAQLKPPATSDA
Description: (§1) Antibodies for integrin α5 (MAB1956Z; MAB1953Z), integrin β1 (MAB2253Z) and integrin β3 (MAB1957Z) (all Millipore, USA) were coated to 96 well tissue culture plates (Nunc, USA) at a concentration of 10 μg/mL overnight at 4° C. in sterile coating buffer (50 mM Na2CO3, 50 mM NaHCO3, pH 9.6). Plates then were blocked with sterile 1% BSA/PBS for 1 h at 37° C. and washed twice with EBM-2 MV (Lonza, Basel, Switzerland). MMVEC-LLy cells were carefully removed from culture flasks with non-enzymatic detachment solution (Trevigen, Md., USA) and washed twice with EBM-2 (Lonza, Basel, Switzerland). Volume was adjusted to a cell concentration of 50,000 cells/100 μL and divided into aliquots for treatment with recombinant lamstatin (10 μg/ml), CP17 (5 μM) or vehicle (1 nM EDTA, pH 3.5) only. Cells were then transferred to the antibody-coated plates and incubated for 1 h at 37° C. Wells were then washed with HANKS twice to remove unbound cells and fixed with 4% paraformaldehyde (in PBS) for 15 min at room temperature. Wells thereafter were photographed with an Olypmus CAMEDIA C-4000 camera mounted to an Olympus CK2 microscope. Pictures were divided into 25 segments and cells of 5 center-near quadrants were counted and averaged. […] Using a similar approach, the inventors observed no expression of integrin α4 on the surface of HMVEC-LLy cells (data not shown).

integrin β3 = target: T2, integrin β3 (Homo sapiens, UniProt P05106); assay: as above; type: cell-based; settings: lamstatin 10 μg/ml, CP17 5 μM, 1 h
T2 construct: endogenous in cells; host or cells: HMVEC-LLy (human primary lymphatic endothelial cells)
T2 sequence (P05106 27-788): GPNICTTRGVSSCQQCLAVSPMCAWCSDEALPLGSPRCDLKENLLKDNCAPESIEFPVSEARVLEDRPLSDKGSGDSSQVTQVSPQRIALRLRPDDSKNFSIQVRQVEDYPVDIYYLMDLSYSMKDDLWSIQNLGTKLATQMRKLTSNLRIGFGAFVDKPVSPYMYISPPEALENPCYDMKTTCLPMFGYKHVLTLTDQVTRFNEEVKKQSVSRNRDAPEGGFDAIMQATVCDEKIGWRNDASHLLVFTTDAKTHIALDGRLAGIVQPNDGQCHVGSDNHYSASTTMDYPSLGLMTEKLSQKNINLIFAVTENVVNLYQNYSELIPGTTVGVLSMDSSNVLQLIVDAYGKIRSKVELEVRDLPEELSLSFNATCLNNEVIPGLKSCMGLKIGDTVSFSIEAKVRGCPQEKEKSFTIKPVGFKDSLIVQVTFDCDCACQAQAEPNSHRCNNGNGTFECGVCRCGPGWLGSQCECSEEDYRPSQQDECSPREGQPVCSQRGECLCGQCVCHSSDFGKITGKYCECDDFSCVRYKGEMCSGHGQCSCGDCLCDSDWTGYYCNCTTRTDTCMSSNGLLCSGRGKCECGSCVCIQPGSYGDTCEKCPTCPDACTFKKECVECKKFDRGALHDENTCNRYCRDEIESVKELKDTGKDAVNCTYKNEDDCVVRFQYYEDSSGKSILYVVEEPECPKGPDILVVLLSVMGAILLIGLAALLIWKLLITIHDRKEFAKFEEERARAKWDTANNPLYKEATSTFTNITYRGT
T2 sequence (P06756 31-889 limits assumed, further chain): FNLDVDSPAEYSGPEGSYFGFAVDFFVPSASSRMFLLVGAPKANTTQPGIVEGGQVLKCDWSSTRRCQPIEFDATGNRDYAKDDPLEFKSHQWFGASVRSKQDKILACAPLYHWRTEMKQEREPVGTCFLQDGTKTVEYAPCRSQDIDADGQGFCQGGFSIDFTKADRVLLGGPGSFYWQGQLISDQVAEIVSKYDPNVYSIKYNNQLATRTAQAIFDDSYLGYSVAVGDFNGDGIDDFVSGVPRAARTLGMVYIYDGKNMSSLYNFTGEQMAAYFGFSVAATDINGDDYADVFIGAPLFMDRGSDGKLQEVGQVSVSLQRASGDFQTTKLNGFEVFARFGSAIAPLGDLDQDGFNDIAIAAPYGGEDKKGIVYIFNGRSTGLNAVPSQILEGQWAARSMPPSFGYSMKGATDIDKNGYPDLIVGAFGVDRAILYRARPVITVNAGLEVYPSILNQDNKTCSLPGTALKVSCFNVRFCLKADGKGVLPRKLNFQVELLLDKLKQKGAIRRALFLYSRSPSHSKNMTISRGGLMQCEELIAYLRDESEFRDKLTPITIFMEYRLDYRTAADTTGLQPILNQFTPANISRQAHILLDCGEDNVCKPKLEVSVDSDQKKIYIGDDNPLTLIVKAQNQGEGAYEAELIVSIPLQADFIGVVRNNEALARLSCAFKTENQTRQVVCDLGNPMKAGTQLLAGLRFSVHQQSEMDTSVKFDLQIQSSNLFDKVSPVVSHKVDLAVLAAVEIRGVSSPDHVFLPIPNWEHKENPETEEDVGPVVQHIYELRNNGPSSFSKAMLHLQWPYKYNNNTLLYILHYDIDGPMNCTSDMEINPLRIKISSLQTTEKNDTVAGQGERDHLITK
T2 sequence (P06756 891-1048 limits assumed, further chain): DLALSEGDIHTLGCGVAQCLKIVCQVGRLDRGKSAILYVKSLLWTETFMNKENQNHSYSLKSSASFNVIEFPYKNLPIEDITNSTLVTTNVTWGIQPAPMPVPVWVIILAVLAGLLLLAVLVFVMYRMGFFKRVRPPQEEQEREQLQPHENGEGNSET
Description: as §1

integrin α5 = target: T3, integrin α5 (Homo sapiens, UniProt P05556+P08648); assay: as above; type: cell-based; settings: lamstatin 10 μg/ml, CP17 5 μM, 1 h
T3 construct: endogenous in cells; host or cells: HMVEC-LLy (human primary lymphatic endothelial cells)
T3 sequence (P08648 42-894 limits assumed): as the sequence (P08648 42-894 limits assumed) above
T3 sequence (P08648 895-1049 limits assumed): as the sequence (P08648 895-1049 limits assumed) above
T3 sequence (P05556 21-798): as the sequence (P05556 21-798) above
Description: as §1

HMVEC-LLy cells [1] = assay: Migration towards a VEGF-D gradient (FluoroBlok transwell); type: cell-based, human; settings: 24 hrs
Description: FluoroBlok BioCoat 24-well inserts (BD Bioscience) were seeded with 4×10^4 HMVEC-LLy cells in 750 μL DMEM with 0.1% BSA, 1% antibiotics and 25 mM HEPES and incubated for 1 hr. The bottom well was filled with 500 μL medium (as described above) with or without 10 ng/mL VEGF-D (R&D Systems) as well as various concentrations of lamstatin, tumstatin, CP17 or vehicle. Additionally, top wells were loaded with inhibitors to match the bottom well concentration. According to manufacturer's instructions cells were allowed to migrate for 24 hrs before bottom media was removed. Thereafter the underside of the transwell with the migrated cells was washed twice with HANKS buffer and placed in a 4 μg/mL calcein (HANKS) solution for 90 min at 37° C. Signal was read with a bottom read fluorescence microplate reader at 485/515 nm (excitation/emission).

integrins α5 and β1 = target: T4, integrins α5 and β1 (Homo sapiens, UniProt P05556+P08648); assay: Integrins mediating binding of lymphatic endothelial cells (data not shown); type: cell-based; settings: HMVEC-LLy in vitro, different from HUVECs
T4 construct: endogenous in cells; host or cells: HMVEC-LLy (human primary lymphatic endothelial cells)

[2] = tested on: lung adenocarcinoma cells (LNM35 AAV-GFP); assay: Mouse ear tumour plug model of tumour-induced lymphangiogenesis; type: in vivo; settings: lamstatin 10 or 100 μg/mL; CP17 5 or 50 μA; vs vehicle
Description: A mouse ear tumour plug model was utilized in which green fluorescent protein (GFP)-tagged lung adenocarcinoma cells (LNM35 AAV-GFP) were injected between the two layers of skin of the ears of NOD/SCID mice. 1×10^6 tumour cells were embedded in […] growth factor free Matrigel® medium enriched with vehicle (1 nM EDTA, pH3.0) or lamstatin at either 10 μg/mL or 100 μg/mL. Mice were divided into three groups.
Group 1 (n=9): One ear of each mouse injected with tumour cells+10 μg/mL lamstatin; the other ear injected with tumour cells+vehicle control. Group 2 (n=9): One ear of each mouse injected with tumour cells+100 μg/mL lamstatin; the other ear injected with tumour cells+vehicle control. Group 3 (n=3): Each ear injected with Matrigel® only.
Injections were single shots such that at least 25 μL was injected. 12 days after injection were sacrificed by anesthetisation and cervical dislocation. Ears were removed for whole mount staining. Flaps of skin from each ear were carefully separated, fixed and stained for either the lymphatic endothelial cell specific marker LyVe-1 (rabbit polyclonal anti-LyVe-1 antibody detected using anti-rabbit Alexafluor 647) or the vascular endothelial cell specific marker PECAM (CD31 rat anti-mouse antibody clone MEC13.3 (Pharmingen), detected with […]). Tumour cells were visualised by detection of GFP expression. Images of representative regions of ears were obtained using a confocal microscope and LyVe-1 or PECAM staining was quantified.
Using the LyVe-1 whole mount stained mouse ear sections, the inventors further investigated the morphology of lymphatic vessel formation. Specifically confocal images were loaded into Image J software (www.sbweb.nih.gov/ij/), a 5×5 grid overlayed and vessels examined for branching and looping. The functionality of a lymphatic network is based on its maturity and in general it is accepted that a tumour induces a rather immature network formation. Reconnecting vessels (measured as loops) and increased branching (measured as branches) are signs of immature vessels induced by, for example, a tumour (see for example Shayan et al. Growth Factors 25, 417-425, 2007).
Branches were defined as two clearly distinguishable vessels that separate out without rejoining. Loops were defined as small, circular vessel structures in the same focal plane. Branches or loops were counted separately per image and mean values were calculated for each treatment group.

HMVEC-LLy cells [3] = assay: Tube formation on Matrigel; type: cell-based, human; settings: 24 hrs, n=2
Description: To assess formation of tubular structures, 48 well plates were coated with 130 μL Matrigel® (BD Bioscience), which was solidified at 37° C. over 45 min. 2×10^4 HMVEC-LLy cells in complete EBM-2 (500 μL) were seeded per well and allowed to attach for 30 min, before lamstatin, tumstatin, CP17 or vehicle was added to the wells. Photos were taken with a Kodak Digital Camera every 2 hrs. Tube formation peaked at 24 hrs, at which time tubular structures were further analysed to determine length (in pixels) and number of tubes per high power field (HPF) area (px^2). The HPF was divided in nine regions of equal size and tubes per region were counted. Mean and SEM were calculated and plotted.

[4] = tested on: human primary lymphatic endothelial cells (HMVEC-LLy cells); assay: MTT cell viability assay, lymphatic endothelial cells; type: cell-based; settings: 24 hrs, data not shown
Description: To determine the function of lamstatin, human primary lymphatic endothelial cells (HMVEC-LLy cells) were exposed to various concentrations of lamstatin and an MTT assay was performed. As a comparison, commercially available tumstatin was used. Specifically, to assess cell viability 4×10^3 HMVEC-LLy cells were seeded per well in 100 μl complete EBM-2 media (with bullet kit, Lonza) and incubated for 2 hrs at 37° C., 5% CO2. After this period lamstatin, tumstatin and respective vehicles (1 nM EDTA, pH 3.0) were prepared in complete EBM-2 as serial dilutions in a separate plate and added. […] After 6 h of further incubation cells were lysed overnight with 10% SDS/0.01 M HCl and measured the following day in a plate reader at 570 nm.
The MTT assay was performed as described above.

LAM nodule cells = assay: MTT cell viability assay, LAM nodule cells; type: cell-based; settings: intermediate layer, centre and outer nodule cells, 72 hrs
Description: To determine the function of lamstatin, human primary lymphatic endothelial cells (HMVEC-LLy cells) were exposed to various concentrations of lamstatin and an MTT assay was performed. As a comparison, commercially available tumstatin was used. Specifically, to assess cell viability 4×10^3 HMVEC-LLy cells were seeded per well in 100 μl complete EBM-2 media (with bullet kit, Lonza) and incubated for 2 hrs at 37° C., 5% CO2. After this period lamstatin, tumstatin and respective vehicles (1 nM EDTA, pH 3.0) were prepared in complete EBM-2 as serial dilutions in a separate plate and added. Cells were grown for 24 hrs before MTT (1 mg/mL in PBS) was added. After 6 h of further incubation cells were lysed overnight with 10% SDS/0.01 M HCl and measured the following day in a plate reader at 570 nm.
The inventors isolated lung cells from a LAM patient, which cells originated from the LAM nodules. These cells were termed according to their location within the nodule, as intermediate layer in the nodule, centre cells and outer nodule cells. These cells were then treated with lamstatin or tumstatin and cell viability measured after 72 hrs. The MTT viability assay was performed as described above in Example 1.

migration of HMVEC-LLy towards a VEGFD gradient after 24 hrs (RFU) (VEGF-D (R&D Systems)): < 15000 RFU
Molecule: VEGFD specific blocking fusion receptor (R3-FC) (Fc fusion)

Molecule: VCNFASRNDYSYWLSTP (listed as Homo sapiens) [CP17]
cell binding in presence of monoclonal antibody against integrin β1 (integrin β1): significantly inhibited cell binding
cell binding in presence of monoclonal antibody against integrin β3 (integrin β3): no effect on binding
cell binding in presence of monoclonal antibody against integrin α5 (integrin α5): significantly inhibited cell binding
migration towards a VEGFD gradient (HMVEC-LLy cells [1]; n=1, VEGFD alone 42.000 RFU): the same effect was not observed
predominant integrins that mediate the binding of lymphatic endothelial cells (integrins α5 and β1): integrins α5 and β1
number of branches of lymphatic vessels [2]: significantly reduced
number of loops of lymphatic vessels [2]: significantly reduced
numbers of tube-like structures formed (HMVEC-LLy cells [3]): reduce in a concentration related manner

predominant integrins that mediate the binding of lymphatic endothelial cells (integrins α5 and β1): integrins α5 and β1
B1: tumstatin: NC1 domain of the α3 chain of collagen type IV; human sequence SEQ ID NO:3; commercially available tumstatin was used (protein, listed as Homo sapiens)
chain: GFVFTRHSQTTAIPSCPEGTVPLYSGFSFLFVQGNQRAHGQDLGTLGSCLQRFTTMPFLFCNVNDVCNFASRNDYSYWLSTPALMPMNMAPITGRALEPYISRCTVCEGPAIAIAVHSQTTDIPPCPHGWISLWKGFSFIMFTSAGSEGTGQALASPGSCLEEFRASPFLECHGRGTCNYYSNSYSFWLASLNPERMFRKPIPSTVKAGELEKIISRCQVCMKKRH
cell viability (MTT) [4]: lamstatin only
reduction of cell viability (MTT) (LAM nodule cells): effective in reducing cell viability at higher concentrations
numbers of tube-like structures formed (HMVEC-LLy cells [3]): reduce in a concentration related manner

B2: VEGFD: growth factor (R&D Systems) used as chemoattractant gradient for lymphatic endothelial cells (protein)
chain: FYDIETLKVIDEEWQRTQCSPRETCVEVASELGKSTNTFFKPPCVNVFRCGGCCNEESLICMNTSTSYISKQLFEISVPLTSVPELVPVKVANHTGCKCLPTAPRHPYS
migration of lymphatic endothelial cells towards VEGFD (HMVEC-LLy cells [1]; increasing concentrations of VEGFD): attract lymphatic endothelial cells in a concentration related manner
